The subject of one test is HUVECs. The test can be described thus: Quantitative RT-PCR of TARS mRNA. It is filed as cell-based, human. The settings on record: HUVECs exposed to 50 ng/ml. The protocol:
Total RNA was extracted from cells using the RNeasy column protocol and cDNA was generated using an Omniscript reverse transcriptase assay according to the manufacturer's instructions (Qiagen, Frederick, Md.). Primers and probes for TARS and β2-microglobulin were Assays-on-Demand (Applied Biosystems, [Life Technologies, Carlsbad, Calif.]). RT-qPCR was performed using an ABI prism 7700 Sequence Detection System (Applied Biosystems). The relative quantity of mRNA level was determined using the comparative CT (ΔΔCT) method using β2-microglobulin to normalize mRNA level (Cassavaugh, Hale et al. 2011).

Test [1] has as its target T1, TARS (Homo sapiens, UniProt P26639).
T1 sequence (P26639 1-723): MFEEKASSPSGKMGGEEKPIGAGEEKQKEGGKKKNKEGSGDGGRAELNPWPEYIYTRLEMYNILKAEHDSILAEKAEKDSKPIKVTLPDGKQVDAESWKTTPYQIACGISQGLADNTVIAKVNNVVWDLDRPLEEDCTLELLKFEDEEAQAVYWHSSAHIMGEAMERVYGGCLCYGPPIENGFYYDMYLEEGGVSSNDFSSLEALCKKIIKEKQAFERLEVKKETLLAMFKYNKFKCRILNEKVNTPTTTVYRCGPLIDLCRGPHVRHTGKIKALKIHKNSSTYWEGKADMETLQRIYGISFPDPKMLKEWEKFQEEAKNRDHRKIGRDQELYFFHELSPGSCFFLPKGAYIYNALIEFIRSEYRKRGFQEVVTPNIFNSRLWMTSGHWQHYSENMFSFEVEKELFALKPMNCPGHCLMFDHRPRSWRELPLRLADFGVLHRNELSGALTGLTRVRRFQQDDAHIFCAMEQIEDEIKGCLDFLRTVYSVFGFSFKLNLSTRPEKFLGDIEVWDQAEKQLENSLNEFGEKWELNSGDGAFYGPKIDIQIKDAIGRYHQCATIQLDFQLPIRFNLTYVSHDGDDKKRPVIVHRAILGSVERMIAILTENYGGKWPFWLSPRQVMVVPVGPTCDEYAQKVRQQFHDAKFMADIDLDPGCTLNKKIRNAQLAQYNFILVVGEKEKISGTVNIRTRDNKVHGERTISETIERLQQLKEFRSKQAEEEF
The test can be described thus: GTPase (GTP hydrolysis) assay. It is filed as biochemical. Set-up: His6 (N); made in house; host or cells: E. coli Rosetta 2 (DE3)pLysS, plasmid pET28a hctThrRS.

Test [2] relates to chorioallantoic membrane (CAM) of chicken embryos. The test can be described thus: Chick chorioallantoic membrane (CAM) assay. The note with it: for CAM vessel formation / vascularity, effect of applied synthetase: purified protein applied daily to gelfoam sponge, 72 h. It is filed as in vivo. On the procedure:
Chick Chorioallantoic Membrane Assay—
Fertilized chicken eggs (Sunrise Farms, Catskill, N.Y.) day 1-2 post-laying were incubated in a humidified incubator at 37° C. for 72 h. Cleaned eggs were cracked and plated in a sterile 10 cm^2 tissue culture-treated dish and incubated at 37° C. for another 7 days. On developmental day 10, 1 mm^3 sterile gelatin sponge pieces (Surgifoam®; Johnson & Johnson Wound Management, Somerville, N.J.) were placed within the outer one-third of the membrane between large vessels. […] All compounds were applied in 10 μl to the CAM every 24 h for 72 h. Images were taken using a Leica MZ6 stereomicroscope every 24 h. Compounds were scored according to a modified version of Intensity Scoring as previously described (Ribatti, Nico et al. 2006). Briefly, each experimental condition was given a blinded score from 0-5 based on the change in the extent of vessel convergence and formation in proximity to the sponge from day 0 to day 3. Total score is averaged individual experimental condition scores from at least 15 replicates.
Fertilized chicken embryos were cultured ex-ova and, starting at developmental day 10, agents were applied daily to gelfoam sponges on the CAM. Images were recorded daily over 72 h and scored blindly according to a modified version Intensity Scoring as previously described (Ribatti, Nico et al. 2006). Additional details regarding methods are provided in the Methods and Materials section of Example 1.

In a further test the test system is tRNAThr. The test can be described thus: Steady state aminoacylation assay. It is filed as biochemical, E. coli or human. The settings on record: purified recombinant protein. On the procedure:
Steady State Aminoacylation Assay—
The aminoacylation activities of the TARS constructs were determined using modifications to established procedures (Francklyn et al 2008). Briefly, reaction mixtures consisted of 20 mM Tris-HCl pH 8.0, 100 mM KCl, 10 mM MgCl2, 1 mM dithiothreitol, 2 mM ATP, 2.5 U pyrophosphatase (Roche), 80 μM threonine, 20 μM [14C]-threonine, and 5 μM of E. coli or human tRNAThr. Reactions were initiated with the addition of 0.25-0.75 μM TARS and run at 37° C. Aliquots were taken at varying time points and spotted onto Whatmann 3MM paper filters pre-soaked in 5% trichloroacetic acid (TCA). Upon completion, the filters were washed 3 times in excess TCA, once in 95% ethanol, and dried under a heating lamp. The formation of Thr-tRNAThr was detected by scintillation counter and the activity determined by linear regression of threonyl-tRNAThr formed per active site per unit time.

Test [3] has as its target T1, TARS. In words: Ap4A formation assay (TLC, [α-32P]-ATP). Set-up: His6 (N); made in house; host or cells: E. coli Rosetta 2 (DE3)pLysS, plasmid pET28a hctThrRS. The settings on record: 5 μM enzyme, 2 mM threonine, 2 mM ATP. It is filed as biochemical.
For test [4], the target named is T1, TARS. In words: Ap4G formation assay (TLC, [α-32P]-GTP). It is filed as biochemical. Also noted: His6 (N); made in house; host or cells: E. coli Rosetta 2 (DE3)pLysS, plasmid pET28a hctThrRS. The settings on record: 2 mM ATP, 2 mM threonine, 2 mM GTP.
Setting [5] is: substrate added to GTPase reaction.

Entries after “also recorded” stand apart in the source; their conditions may differ.

Regarding VEGF, the “TARS mRNA level” value with HUVECs is listed as “neither VEGF nor TNF-α induced an increase; also recorded: do not induce TARS transcription”.
Take `C[C@@H](O)[C@H](N)C(=O)O` [threonine]: on TARS [1] (setting [5]), the “increase in TARS GTPase activity” value is on record as 26%.
Regarding TNF-α, the “TARS mRNA level” value in the test with HUVECs was “neither VEGF nor TNF-α induced an increase; also recorded: do not induce TARS transcription”.
On to `Nc1ncnc2c1ncn2[C@@H]1O[C@H](COP(=O)(O)OP(=O)(O)OP(=O)(O)O)[C@@H](O)[C@H]1O` [ATP], for which the “decrease in TARS GTPase activity” value on TARS [1] (setting [5]) is listed as 77%.

B1: L567V TARS: BC194-resistant (borrelidin-resistant) L567V mutant of human TARS (protein, listed as Homo sapiens)
chain: MFEEKASSPSGKMGGEEKPIGAGEEKQKEGGKKKNKEGSGDGGRAELNPWPEYIYTRLEMYNILKAEHDSILAEKAEKDSKPIKVTLPDGKQVDAESWKTTPYQIACGISQGLADNTVIAKVNNVVWDLDRPLEEDCTLELLKFEDEEAQAVYWHSSAHIMGEAMERVYGGCLCYGPPIENGFYYDMYLEEGGVSSNDFSSLEALCKKIIKEKQAFERLEVKKETLLAMFKYNKFKCRILNEKVNTPTTTVYRCGPLIDLCRGPHVRHTGKIKALKIHKNSSTYWEGKADMETLQRIYGISFPDPKMLKEWEKFQEEAKNRDHRKIGRDQELYFFHELSPGSCFFLPKGAYIYNALIEFIRSEYRKRGFQEVVTPNIFNSRLWMTSGHWQHYSENMFSFEVEKELFALKPMNCPGHCLMFDHRPRSWRELPLRLADFGVLHRNELSGALTGLTRVRRFQQDDAHIFCAMEQIEDEIKGCLDFLRTVYSVFGFSFKLNLSTRPEKFLGDIEVWDQAEKQLENSLNEFGEKWELNSGDGAFYGPKIDIQIKDAIGRYHQCATIQLDFQVPIRFNLTYVSHDGDDKKRPVIVHRAILGSVERMIAILTENYGGKWPFWLSPRQVMVVPVGPTCDEYAQKVRQQFHDAKFMADIDLDPGCTLNKKIRNAQLAQYNFILVVGEKEKISGTVNIRTRDNKVHGERTISETIERLQQLKEFRSKQAEEEF
Take B1: the “sensitivity of synthetase-induced CAM angiogenesis to BC194” value in test [2] (protein plus BC194 applied to CAM) is reported as “not inhibited”. Also, the “CAM vessel formation / vascularity, effect of applied synthetase” value in test [2] is listed as “stimulated vessel formation”. For the same molecule, the aminoacylation activity entry in the test with tRNAThr is listed as “not compromised”.

B2: R442A TARS: aminoacylation-deficient human TARS mutant; essential catalytic arginine 442 exchanged for alanine (protein, listed as Homo sapiens)
chain: MFEEKASSPSGKMGGEEKPIGAGEEKQKEGGKKKNKEGSGDGGRAELNPWPEYIYTRLEMYNILKAEHDSILAEKAEKDSKPIKVTLPDGKQVDAESWKTTPYQIACGISQGLADNTVIAKVNNVVWDLDRPLEEDCTLELLKFEDEEAQAVYWHSSAHIMGEAMERVYGGCLCYGPPIENGFYYDMYLEEGGVSSNDFSSLEALCKKIIKEKQAFERLEVKKETLLAMFKYNKFKCRILNEKVNTPTTTVYRCGPLIDLCRGPHVRHTGKIKALKIHKNSSTYWEGKADMETLQRIYGISFPDPKMLKEWEKFQEEAKNRDHRKIGRDQELYFFHELSPGSCFFLPKGAYIYNALIEFIRSEYRKRGFQEVVTPNIFNSRLWMTSGHWQHYSENMFSFEVEKELFALKPMNCPGHCLMFDHRPRSWRELPLRLADFGVLHANELSGALTGLTRVRRFQQDDAHIFCAMEQIEDEIKGCLDFLRTVYSVFGFSFKLNLSTRPEKFLGDIEVWDQAEKQLENSLNEFGEKWELNSGDGAFYGPKIDIQIKDAIGRYHQCATIQLDFQLPIRFNLTYVSHDGDDKKRPVIVHRAILGSVERMIAILTENYGGKWPFWLSPRQVMVVPVGPTCDEYAQKVRQQFHDAKFMADIDLDPGCTLNKKIRNAQLAQYNFILVVGEKEKISGTVNIRTRDNKVHGERTISETIERLQQLKEFRSKQAEEEF
For the molecule B2, the “CAM vessel formation / vascularity, effect of applied synthetase” value in test [2] was “virtually indistinguishable from wild type”. Moreover, the aminoacylation activity result in the test on tRNAThr is “essentially no aminoacylation activity; also recorded: virtually negligible aminoacylation function”. Further, in the test with TARS [3], the Ap4A production rate result is on record as “no appreciable activity; also recorded: blocked”. Also, the Ap4G formation rate entry with TARS [4] is recorded as “not catalyzed; also recorded: blocked”.

B3: E. coli ThrRS: bacterial (E. coli) threonyl-tRNA synthetase (protein, UniProt P0A8M3 1-642, looked up)
Threonine--tRNA ligase: MPVITLPDGSQRHYDHAVSPMDVALDIGPGLAKACIAGRVNGELVDACDLIENDAQLSIITAKDEEGLEIIRHSCAHLLGHAIKQLWPHTKMAIGPVIDNGFYYDVDLDRTLTQEDVEALEKRMHELAEKNYDVIKKKVSWHEARETFANRGESYKVSILDENIAHDDKPGLYFHEEYVDMCRGPHVPNMRFCHHFKLMKTAGAYWRGDSNNKMLQRIYGTAWADKKALNAYLQRLEEAAKRDHRKIGKQLDLYHMQEEAPGMVFWHNDGWTIFRELEVFVRSKLKEYQYQEVKGPFMMDRVLWEKTGHWDNYKDAMFTTSSENREYCIKPMNCPGHVQIFNQGLKSYRDLPLRMAEFGSCHRNEPSGSLHGLMRVRGFTQDDAHIFCTEEQIRDEVNGCIRLVYDMYSTFGFEKIVVKLSTRPEKRIGSDEMWDRAEADLAVALEENNIPFEYQLGEGAFYGPKIEFTLYDCLDRAWQCGTVQLDFSLPSRLSASYVGEDNERKVPVMIHRAILGSMERFIGILTEEFAGFFPTWLAPVQVVIMNITDSQSEYVNELTQKLSNAGIRVKADLRNEKIGFKIREHTLRRVPYMLVCGDKEVESGKVAVRTRRGKDLGSMDVNEVIEKLQQEIRSRSLKQLEE
The molecule B3 returned an Ap4A production rate in the test with TARS [3] of 0.5612 Ap4A/active site/min. This molecule registered an Ap4G formation rate with TARS [4] of 0.5612 Ap4G/active site/min. In addition, in the test with TARS [1] (2 mM GTP), the GTP hydrolysis rate result is listed as “not”.
